Measured values as given in the nanobody polyreactivity screen of Harvey et al. (2022).

Experiment: yeast display, Sf9 membrane polyspecificity reagent, FACS + sequencing; frameworks hold sequencing errors
Procedure, shortened: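 Polyreactivity labels are assigned by the sorting gate from which each nanobody was recovered. The gates were low and high (top ~1%), set on anti-HA fluorescence for expression and streptavidin fluorescence for reagent binding. Before sorting, galactose-induced (36–48 hours) yeast display cells were stained for 1 hour at 4 °C with 10% biotinylated, detergent-solubilized Sf9 membrane reagent.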

Sequence | polyreactivity (PSR sort gate)
QVQLVESGGGLVQAGGSLRLSCAASGRTFPRYVMGWYRQAPGKERELVAAITSSGGSTYYADSVKGRFTISRDKAMNTVYLQMNSLKPEDTAVYYCAAFARPYSGQYAYRLDYWGQGTQVTVSS | high polyreactivity
QVQLVESGGGLVQAGGSLRLSCAASGRTFPVNAMGWYRQAPGKERELVATISWSGGSTYYADSVKGRFTISRDYAKNTVYLQMNSLKPEDTAVYYCAALGRHYRYDYWGQGTLVTVSS | low polyreactivity
QVQLVESGGGLVQAGGSLRLSCAASGRTFPYNAMGWYRQAPGKERELVAAITWSGGSTYYADSVKGRFTISRDNAKNTVYLQMNSLKPEDTAVYYCNKDFPVFEYDYWGQGTQVTVSS | low polyreactivity
QVQLVESGGGLVQAGGSLRLSCAASGRTFPYNAMGWYRQAPGKERELVAGITGGGSTYYADSVKGRFTISRDNAKKTVYLQMNSLKPEDTAVYYCAADRYFLYGTYPDVEFNYWGQGTQVTVSS | high polyreactivity
QVQLVESGGGLVQAGGSLRLSCAASGRTFPYNAMGWYRQAPGKERELVASITYNGGSTYYADSVKGRFTISRDNAKNTVYLQMISLKPEDTAVYYCAKLFRTYYATYNYWGQGTQVTVSS | high polyreactivity
QVQLVESGGGLVQAGGSLRLSCAASGRTFPYYAMGWYRQAPGKERELVAAINSGGITNYADSVKGRFTISRDNAKNTVYLQMNSLKPEDTAVYYCAAKTAFYRERGYWGQGTQVTVSS | low polyreactivity
QVQLVESGGGLVQAGGSLRLSCAASGRTFPYYAMGWYRQAPGKERELVAAITRGVRTHYADSVKGRFTISRDNAKYTVYLQMNSLKPEDTAVYYCAREDWGSYSDMDSWGQGTQVTVSS | low polyreactivity
QVQLVESGGGLVQAGGSLRLSCAASGRTFPYYAMGWYRQAPGKERELVARITSGSGTYYADSVKGRFTISRDNAKNTVYLQMNSLKPEDTAVYYCAAREPGVGYVGNYTGLVYWGQGTQVTVSS | low polyreactivity
QVQLVESGGGLVQAGGSLRLSCAASGRTFPYYTMGWYRQAPGKERELVAAITSGGSTYYADSVKGRFTISRDNAKNTVYLQMNSLKPEDTAVYYCNKDAYYWGQGTQVTVSS | low polyreactivity
QVQLVESGGGLVQAGGSLRLSCAASGRTFPYYVMGWYRQAPGKERELVAAISTTGGSTYYADSVKGRFTISRDNAKNTVYLQMNSLKPEDTAVYYCAARRLIRDNLGYDYWGQGTQVTVSS | high polyreactivity
QVQLVESGGGLVQAGGSLRLSCAASGRTFQEYAMGWYRQAPGKERELVADISDGGSTNYADSVKGRFTISRDNAKNTVYLQMYSLKPEDTAVYYCAADQYHGVGINFRSDYDYWGQGTQVTVSS | low polyreactivity
QVQLVESGGGLVQAGGSLRLSCAASGRTFQFYAMGWYRQAPGKERELVAAISSGGSTNYADSVKGRFTISRDNAKNTVYLEMNSLKPEDSAVYYCAKRPWYHADWWDDHWGQGTQVTVSS | high polyreactivity
QVQLVESGGGLVQAGGSLRLSCAASGRTFQFYVMGWYRQAPGKERELLASIRSGGSTNYADSVKGRFTISRDNAKNTVYLQMNSLKPEDTAVYYCNADAYGTPEFTSYAVRYDYWGQGTQVTVSS | low polyreactivity
QVQLVESGGGLVQAGGSLRLSCAASGRTFQGKAMGWYRQAPGKERELVAAISSSGGRTYYADSVKGRFTISRDNAKNTVYLQMNSLKPVDTSVYYCAARNYFWGQGTQVTVSS | low polyreactivity
QVQLVESGGGLVQAGGSLRLSCAASGRTFQGNAMGWYRQAPGKERELVAVIDSGTSTDYADSVKGRFTISRDNAKNTVYLQMNSLKPEDTAVYYCAADGALGYNLRYDYWGQGTQVTVSS | low polyreactivity
QVQLVESGGGLVQAGGSLRLSCAASGRTFQGYAMGWYRQAPGKERELVAAISYRGGSTYYADSVKGRFTISRDHAKPTVFLPMNSLKPEDTAVYYCAARWNRGRYDYWGQGTQVTVSS | high polyreactivity
QVQLVESGGGLVQAGGSLRLSCAASGRTFQLYAMGWYRQAPGKERDLVAAISARGGSTYYADSVKGRFTISRDNAKNTVYLQMNSLKPEDTAVYYCNADYNVVLSRVIYARGYWGQGTQVTVSS | high polyreactivity
QVQLVESGGGLVQAGGSLRLSCAASGRTFQQNAMGWYRQAPGKERELVAAINSRGGRTYYADSVKGRFTISRDTAKNTVYLQMNSLKPEDTAVYYCAARYYWGQGTQVTVSS | high polyreactivity
QVQLVESGGGLVQAGGSLRLSCAASGRTFQSNAMGWYRQAPGKERELVAAITNGGNTNYADSVKGRFTISRDNAKNTVYLQMNSLKPEDTAVYYCAADRLYVRYGYWGQGTQVTVSS | low polyreactivity
QVQLVESGGGLVQAGGSLRLSCAASGRTFQSNGMGWYRQAPGKERELVAAITWSSGTTYYADSVKGRFTISRDNAKNTVYLQMNSLKPEDTAVYYCAADWGHWNSLFYSGFGYWGQGTQVTVSS | low polyreactivity
QVQLVESGGGLVQAGGSLRLSCAASGRTFQYYAMGWYRQAPGKEREFVAAISRSGGSTYYADSVKGRFTISRDNAKNTVYLQMNSLKPEDTAVYYCAADAYRSSYDYWGQGTQVTVSS | low polyreactivity
QVQLVESGGGLVQAGGSLRLSCAASGRTFQYYAMGWYRQAPGKERELVAAISSRGGSTYYADSVKGRFTISRDNAKNTVYLQMNSLKPEDTAVYYCAAYVLPRQRVRSDYWGQGTQVTVSS | high polyreactivity

Sequence | polyreactivity (PSR sort gate)
QVQLVESGGGLVQAGGSLRLSCAASGRTFQYYTMGWYRQAPGKEREFVAALRDSGGSTYYADSVKGRFTISRDNAKNTVYLQMNSLKPEDTAVYYCAAYRPRKYDYWGQGTQVTVSS | high polyreactivity
QVQLVESGGGLVQAGGSLRLSCAASGRTFRANAMGWYRQAPGKERELFAAISKRGGNTYYADSVKGRFTISRDNAKNTVYLQMNSLKPEDTAVYYCADDFICRDYDYWGQGTQVTVSS | high polyreactivity
QVQLVESGGGLVQAGGSLRLSCAASGRTFRANAMGWYRQAPGKERELVAAIRTGTRTYYADSVKGRFTISRDNAKNTVYLQMNSLKPEDTAVYYCNRRHYYPYDNYDAMYYWGQGTQVTVSS | high polyreactivity
QVQLVESGGGLVQAGGSLRLSCAASGRTFRANTMGWYRLAPGKERELVAAISHSGGSTYYADSVKGRFTISRDNAKNTVYLQMNSLKPEDTAVYYCATDGGSYSWASPRVDYWGQGTQVTVSS | low polyreactivity
QVQLVESGGGLVQAGGSLRLSCAASGRTFRANTMGWYRQAPGKERELVAAITWSGASTYYADSVKGRFTISRDNAKNTVYLQMNSLKPEDTAVYYCNAGWDSGIVQSDETVYKYDYWGQGTQVTVSS | low polyreactivity
QVQLVESGGGLVQAGGSLRLSCAASGRTFRAYAMGWYRQAPGKERELVAAISSRGGSTYYADSVKGRFTISRDNAKNTVYLQMNSLKPEDTAVYYCNVDRYVRGLITFDYWGQGTQVTVSS | high polyreactivity
QVQLVESGGGLVQAGGSLRLSCAASGRTFRAYAMGWYRQAPGKERELVAGITSGGSTNYADSVKGRFTISRDNAKNTVYLQMNSLKPEDTAVYYCAARRGTYRYRYDYWGQGTQVTVSS | high polyreactivity
QVQLVESGGGLVQAGGSLRLSCAASGRTFRAYAMGWYRQAPGKERELVASISRGGSTKYADSVKGRFTISRDNAKNTVYLQMNSVKPEDTAVYYCAADRLRDGVDYWGQGTQVTVSS | low polyreactivity
QVQLVESGGGLVQAGGSLRLSCAASGRTFRAYTMGWYRQAPGKERELVAAISTPGGSTYYADSVKGRFTISRDNAKNTVYLQMNSLKPEDTAVYYCAADRYYWGQGTQVTVSS | low polyreactivity
QVQLVESGGGLVQAGGSLRLSCAASGRTFREYAMGWYRHAPGKEREFVAAISESVGSTYYADSVKGRFTISRDNAKNTVYLQMNSLKPEDTAVYYCAKQSRYPSLDADYDYWGQGTQVTVSS | low polyreactivity
QVQLVESGGGLVQAGGSLRLSCAASGRTFRFYAMGWYRPAPGKERELVAGITRSGGGTYYADSVKGRFTISRDNAKNTVYLQMNSLKPEDTAVYYCAATHAYLGYGYWGQGTQVTVSS | high polyreactivity
QVQLVESGGGLVQAGGSLRLSCAASGRTFRFYDMGWYRQAPGKERELVAAISRGGGSTYYADSVKGRFTISRDNAKNTVYLQMNSLKPEDTAVYYCAAKPYKTRSSYWGDYYWGQGTQVTVSS | high polyreactivity
QVQLVESGGGLVQAGGSLRLSCAASGRTFRGNALGWYRQAHGKERELVAAITGTGGSTYYADSVKGRFTISRDNAKNTVYLQRNRLKPEDTAVYYCAAVLRGHNGLKFEYWGQGTQVTVSS | high polyreactivity
QVQLVESGGGLVQAGGSLRLSCAASGRTFRGNAMGWYRQAPGKERELVAAIRWNGGSTYYADSVKGRFTISRDNAKNTVYLQMNSLKPEDTAVYYCAVLRLDYWGQGTQVTVSS | high polyreactivity
QVQLVESGGGLVQAGGSLRLSCAASGRTFRGYAMGWYRQAPGKERELVAAISVTGSSTNYADSVKGRFTISRDNAKNTVYLQMNSLKPEDTAVYYCAASYRLYKYDYWGQGTQVTVSS | high polyreactivity
QVQLVESGGGLVQAGGSLRLSCAASGRTFRGYAMGWYRQAPGKERELVAAISVTGSSTNYADSVKGRFTISRDNAKNTVYLQMNSLKPEDTAVYYCNAKRVRYSLSYDYWGQGTQVTVSS | high polyreactivity
QVQLVESGGGLVQAGGSLRLSCAASGRTFRGYAMGWYRQAPGKERELVAAITRSGGSTYADSVKGRFTISRDNAKNTFYLQMNSLKPEDTAVYYCAADRGYKYYYWGQGTQVTVSS | high polyreactivity
QVQLVESGGGLVQAGGSLRLSCAASGRTFRGYVMGWYRQAPGKEREFVAAITRSDGSTYYADSVKGRFTISRDNAKNTVYLQMNSLKPEDTAVYYCAADLRRFQSYYYWGQGTQVTVSS | high polyreactivity
QVQLVESGGGLVQAGGSLRLSCAASGRTFRGYVMGWYRQAPGKERELVAAISKSGGSTYYADSVKGRFTISRDNAKNTVYLQMNSLKPEDTAVYYCAKNYRYYVFYDGFDYWGQGTQVTVSS | low polyreactivity
QVQLVESGGGLVQAGGSLRLSCAASGRTFRHNAMGWYRQAPGKERELVAAISKSGGRTYYADSVKGRFTISRDNAKNTVYLQMNSLKPEDTAVYYCAAPLYVSTSGEVGYWGQGTQVTVSS | high polyreactivity
QVQLVESGGGLVQAGGSLRLSCAASGRTFRHNAMGWYRQAPGKERELVAAISSSGTNTHYADSVKGRFTISRDNAKNTVYLQMNSLKPEDTAVYYCATVVRSAAYAFDYWGQGTQVTVSS | high polyreactivity
